B1: Regulatory protein NPR4 (Arabidopsis thaliana (Mouse-ear cress)), Q5ICL9 (parent)
chain: MAATAIEPSSSISFTSSHLSNPSPVVTTYHSAANLEELSSNLEQLLTNPDCDYTDAEIIIEEEANPVSVHRCVLAARSKFFLDLFKKDKDSSEKKPKYQMKDLLPYGNVGREAFLHFLSYIYTGRLKPFPIEVSTCVDSVCAHDSCKPAIDFAVELMYASFVFQIPDLVSSFQRKLRNYVEKSLVENVLPILLVAFHCDLTQLLDQCIERVARSDLDRFCIEKELPLEVLEKIKQLRVKSVNIPEVEDKSIERTGKVLKALDSDDVELVKLLLTESDITLDQANGLHYAVAYSDPKVVTQVLDLDMADVNFRNSRGYTVLHIAAMRREPTIIIPLIQKGANASDFTFDGRSAVNICRRLTRPKDYHTKTSRKEPSKYRLCIDILEREIRRNPLVSGDTPTCSHSMPEDLQMRLLYLEKRVGLAQLFFPAEANVAMDVANVEGTSECTGLLTPPPSNDTTENLGKVDLNETPYVQTKRMLTRMKALMKTVETGRRYFPSCYEVLDKYMDQYMDEEIPDMSYPEKGTVKERRQKRMRYNELKNDVKKAYSKDKVARSCLSSSSPASSLREALENPT
partner: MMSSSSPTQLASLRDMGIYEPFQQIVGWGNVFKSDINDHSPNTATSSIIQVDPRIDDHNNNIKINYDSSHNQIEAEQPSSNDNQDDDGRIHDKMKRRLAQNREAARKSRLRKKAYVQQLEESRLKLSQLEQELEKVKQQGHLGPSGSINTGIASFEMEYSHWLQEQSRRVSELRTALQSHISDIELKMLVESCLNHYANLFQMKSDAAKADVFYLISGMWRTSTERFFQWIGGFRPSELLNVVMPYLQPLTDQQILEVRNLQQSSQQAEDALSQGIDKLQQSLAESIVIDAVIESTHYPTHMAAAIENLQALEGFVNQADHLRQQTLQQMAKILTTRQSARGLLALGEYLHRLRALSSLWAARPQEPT
B2: Regulatory protein NPR4 (Arabidopsis thaliana (Mouse-ear cress)), Q5ICL9 (parent)
chain: B1 chain
partner: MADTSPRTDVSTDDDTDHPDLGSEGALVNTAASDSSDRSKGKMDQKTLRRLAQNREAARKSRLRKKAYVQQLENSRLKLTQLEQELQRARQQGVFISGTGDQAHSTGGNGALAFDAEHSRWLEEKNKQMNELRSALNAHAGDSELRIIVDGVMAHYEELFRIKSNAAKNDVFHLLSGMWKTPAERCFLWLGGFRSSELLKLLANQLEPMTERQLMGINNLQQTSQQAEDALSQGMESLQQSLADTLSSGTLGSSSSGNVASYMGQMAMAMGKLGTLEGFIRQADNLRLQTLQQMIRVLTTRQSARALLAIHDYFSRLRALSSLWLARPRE

Variants of: B1
Conditions: with tga7_arath TGA7, Q93ZE2

Row | Variant | effect of a mutation on the interaction
1 | MAATAIEPSSSISFTSSHLSNPSPVVTTYHSAANLEELSSNLEQLLTNPDCDYTDAEIIIEEEANPVSVHRCVLAARSKFFLDLFKKDKDSSEKKPKYQMKDLLPYGNVGREAFLHFLSYIYTGRLKPFPIEVSTCVDSVCAHDSCKPAIDFAVELMYASFVFQIPDLVSSFQRKLRNYVEKSLVENVLPILLVAFHCDLTQLLDQCIERVARSDLDRFCIEKELPLEVLEKIKQLRVKSVNIPEVEDKSIERTGKVLKALDSDDVELVKLLLTESDITLDQANGLHYAVAYSDPKVVTQVLDLDMADVNFRNSRGYTVLYIAAMRREPTIIIPLIQKGANASDFTFDGRSAVNICRRLTRPKDYHTKTSRKEPSKYRLCIDILEREIRRNPLVSGDTPTCSHSMPEDLQMRLLYLEKRVGLAQLFFPAEANVAMDVANVEGTSECTGLLTPPPSNDTTENLGKVDLNETPYVQTKRMLTRMKALMKTVETGRRYFPSCYEVLDKYMDQYMDEEIPDMSYPEKGTVKERRQKRMRYNELKNDVKKAYSKDKVARSCLSSSSPASSLREALENPT [H321Y] | disrupting interaction

Variants of: B2
Conditions: with tga2_arath TGA2, P43273

Row | Variant | effect of a mutation on the interaction
2 | MAATAIEPSSSISFTSSHLSNPSPVVTTYHSAANLEELSSNLEQLLTNPDCDYTDAEIIIEEEANPVSVHRCVLAARSKFFLDLFKKDKDSSEKKPKYQMKDLLPYGNVGREAFLHFLSYIYTGRLKPFPIEVSTCVDSVCAHDSCKPAIDFAVELMYASFVFQIPDLVSSFQRKLRNYVEKSLVENVLPILLVAFHCDLTQLLDQCIERVARSDLDRFCIEKELPLEVLEKIKQLRVKSVNIPEVEDKSIERTGKVLKALDSDDVELVKLLLTESDITLDQANGLHYAVAYSDPKVVTQVLDLDMADVNFRNSRGYTVLYIAAMRREPTIIIPLIQKGANASDFTFDGRSAVNICRRLTRPKDYHTKTSRKEPSKYRLCIDILEREIRRNPLVSGDTPTCSHSMPEDLQMRLLYLEKRVGLAQLFFPAEANVAMDVANVEGTSECTGLLTPPPSNDTTENLGKVDLNETPYVQTKRMLTRMKALMKTVETGRRYFPSCYEVLDKYMDQYMDEEIPDMSYPEKGTVKERRQKRMRYNELKNDVKKAYSKDKVARSCLSSSSPASSLREALENPT [H321Y] | disrupting interaction

Source: IntAct's records for PubMed 15634206
